Measured values from patent US20210309702A1.
Where two headings read alike, the source gives them in different places.

What was measured:
Experiment in all cases: cell-based or functional assay
[1] = target: VSV-G fused with GFP11 at its C terminus (VSV-G-GFP11) (Vesicular Stomatitis Virus (Indiana strain)) (UniProt P03522)
[2] = target: superfolder GFP tagged VSV-G (VSV-G-sfGFP) (Vesicular Stomatitis Virus (Indiana strain)) (UniProt P03522)
[3] = target: VSV-G fused with GFP11 at its C terminus (VSV-G-GFP11) (Vesicular Stomatitis Virus (Indiana strain)) (UniProt P03522); remark: listed apart in the source

Cre recombinase fused with GFP1-10 (Cre-GFP1-10) (from UniProt P06956 1-343)
293ColorSwitch cells switched to GFP [1]: 66.9% | 293ColorSwitch cells switched to GFP [2]: 2.6% | 293ColorSwitch cells switched to GFP [3]: > 80%
